# T1: bsKu core (wild type) (Bacillus subtilis, UniProt O34859 18-244)
# T1 sequence: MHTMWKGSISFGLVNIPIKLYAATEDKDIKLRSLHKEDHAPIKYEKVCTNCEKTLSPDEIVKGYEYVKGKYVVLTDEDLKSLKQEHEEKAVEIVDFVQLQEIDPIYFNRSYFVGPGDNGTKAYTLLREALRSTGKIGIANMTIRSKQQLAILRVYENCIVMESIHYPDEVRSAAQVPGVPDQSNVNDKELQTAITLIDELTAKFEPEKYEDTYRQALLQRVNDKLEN
# B1: 13-bp DNA (dsDNA)
# DNA 1: GTACCTGTAGAAG
# DNA 2: CTTCTACAGGTAC
# B2: 11-bp DNA with 2-nt overhang (dsDNA)
# DNA 1: ACACACGCCGAGC
# DNA 2: GCTCGGCGTGT
# Legend:
# [1] = target: T1, bsKu core (wild type); assay: cryo-EM; 2.74 A; two blunt ends bridged by two Ku homodimers; EMSA: 20 mM HEPES pH 7.5, 150 mM KCl, 1 mM DTT, 50 nM DNA, 30 min at 4°C, 15% native PAGE in 0.5x TBE, SYBR Gold; SEC: same buffer, protein:DNA 1:2, 1 h at 4°C, Superdex 75; details: protein: recombinant, tags: N-terminal 8xHis-MBP, cleaved with PreScission protease, chain copies: 2
# [2] = target: T1, bsKu core (wild type); assay: size-exclusion chromatography; 1:1 complex, no oligomerization; EMSA: 20 mM HEPES pH 7.5, 150 mM KCl, 1 mM DTT, 50 nM DNA, 30 min at 4°C, 15% native PAGE in 0.5x TBE, SYBR Gold; SEC: same buffer, protein:DNA 1:2, 1 h at 4°C, Superdex 75; details: protein: recombinant; tags: N-terminal 8xHis-MBP, cleaved with PreScission protease; chain copies: 2; 2-nt overhang; main text says at one end
Binder,binding result [1],binding result [2]
B1,binds,
B2,,binds

# Reference: paper PMC12784961, “Structure of Bacillus subtilis Ku-mediated DNA synaptic complex”
